In paper doi:10.1101/2024.09.27.615443 (bioRxiv, 2024):

Target: recombinant TGF-β1/GARP (Homo sapiens, UniProt P01137;Q14392)
Assay: ELISA

Sequence of recombinant TGF-β1/GARP (P01137 30-390, chain 1 of 2): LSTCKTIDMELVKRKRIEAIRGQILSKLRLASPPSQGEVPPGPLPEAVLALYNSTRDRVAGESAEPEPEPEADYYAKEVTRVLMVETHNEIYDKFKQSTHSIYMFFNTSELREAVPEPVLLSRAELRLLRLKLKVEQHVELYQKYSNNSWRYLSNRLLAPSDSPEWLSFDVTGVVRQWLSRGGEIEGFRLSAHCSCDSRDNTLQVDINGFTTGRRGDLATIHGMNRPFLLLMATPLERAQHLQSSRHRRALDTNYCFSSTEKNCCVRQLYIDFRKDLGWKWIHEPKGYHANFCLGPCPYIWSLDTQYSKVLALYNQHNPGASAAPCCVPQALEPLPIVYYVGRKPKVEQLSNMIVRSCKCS
Sequence of recombinant TGF-β1/GARP (Q14392 20-662, chain 2 of 2): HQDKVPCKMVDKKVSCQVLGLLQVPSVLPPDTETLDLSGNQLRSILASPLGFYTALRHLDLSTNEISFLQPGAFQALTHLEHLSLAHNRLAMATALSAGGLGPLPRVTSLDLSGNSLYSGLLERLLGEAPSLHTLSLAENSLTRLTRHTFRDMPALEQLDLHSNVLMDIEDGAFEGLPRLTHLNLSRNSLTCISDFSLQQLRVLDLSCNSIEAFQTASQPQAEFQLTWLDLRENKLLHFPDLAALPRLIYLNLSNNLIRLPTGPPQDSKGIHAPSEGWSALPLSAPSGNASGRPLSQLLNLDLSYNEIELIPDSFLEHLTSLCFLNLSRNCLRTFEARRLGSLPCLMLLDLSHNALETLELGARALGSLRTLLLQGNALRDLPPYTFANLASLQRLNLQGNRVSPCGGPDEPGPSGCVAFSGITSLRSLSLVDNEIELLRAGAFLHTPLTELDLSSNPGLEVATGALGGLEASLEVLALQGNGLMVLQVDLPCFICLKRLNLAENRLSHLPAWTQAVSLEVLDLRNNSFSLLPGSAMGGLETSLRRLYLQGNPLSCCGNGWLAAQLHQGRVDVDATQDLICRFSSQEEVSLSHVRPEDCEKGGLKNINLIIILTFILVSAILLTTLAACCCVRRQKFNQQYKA

B1: monoclonal antibody clone 28G11 (antibody, V domains shown)
VH: EVKLVESGGGLVQPGGSLSLSCAASGFTFTDYYMSWVRQPPGKALEWLGFIRNKPNGYTTEYSASVKGRFTISRDNSQSILYLQMNVLRAEDSATYYCARYTGGGYFDYWGQGTTLTVSS
VL: DIQMTQTTSSLSASLGDRLTISCRASQDISNYLNWYQQKPDGTVKLLIYYTSRLHSGVPSRFSGSGSGTDYSLTISNLEQADIATYFCQQGDTLPWTFGGGTKLEIK
binding result: binds
